These results are taken from article doi:10.1101/2025.10.13.682103.

Assay [1] deals with Mycoplasma penetrans methionyl-tRNA synthetase, full length, M568A (Mycoplasma penetrans). Put plainly: PAGE analysis.
Assay [2] has the same target. Briefly: cryo-EM structure.
For assay [3] the target is unchanged. Briefly: cryo-EM structure. This is another data set of the same source.

Several values for one entry are separate records, joined by “and”; a condition that tells them apart may be missing. Equal entries are not always repeated.

Consider “Mycoplasma penetrans methionyl-tRNA synthetase, full length, M568A (enzyme)”, for which the stoichiometry N in assay [1] is 2; in assay [2], 4 and 6; in assay [3] it was 2.

What is called stoichiometry N is the number of molecules, sites or subunits per partner or assembly.
